In a protein production outcome set (Wang et al. 2014):

Test: label from the status in PepcDB records
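Also: failed if final PepcDB status was selected cloned or expressed and not failed if soluble or beyond.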

| Sequence | protein production |
| --- | --- |
| MNSAARNAPAGSQPVKAELWKRVYSRVGSYWKGLVLAVLLMAGAAATQPTLAVIMKPLLDDGFSGAKPHYVWFLPLAVVGLILLRGICNFFSDYLLAWVANNVLRGIRGEMFERLLGLPDADFKRGDTGRLLNRFTIDAGNVTGYATDVITVLVRETLVVIALIGVLLYMSWALTLIILVMLPVSVGIARAFTRRLRRINRETVNMNAELTRVVSEGIDGQRVIKLFDGYDAERRRFDFVNSRLRRFAMRSATADAALTPLTQVCISVAVGAVIAVALSQANSGALTVGSFASFMAALAQIFDPIKRLTNLAGKMQKMLVAAESVFTLVDQTPEADAGTRALPEPVRGKVEFRAVSHRFPDADRDTVSAVSFLVEPGQTVALVGRSGSGKTTLVNMLPRFVLPDGGDILFDDVPIQDLTLRSLRSHLSLVSQDVVLFDDTIAANVGYGAGGTVDDARVRDALAAANLLEFVDGLPLGIHTPVGQNAARLSGGQRQRLAIARALIKNAPVLILDEATSALDNESERQVQASLERLMRGRTTLVIAHRLSTVQNADRIIVLDAGKIVEHGPHSELLAANGLYASLYNMQFRED | failed |
| MTFGQSIGTCFAKYITFSGRASRPEYWYFFLFLLLGSIAATMLDALLFDAVTTTVETSDTSTSARIENTGPIAPIFSLAVFLPHLAVAFRRMHDTGRSGIYAILPFLLMLCAVLVLVFGVGIASSFAAGGSLDLLFTRATLLLLIPTLAVLFISPLLVLWWLTRPSQPGTNQYGPNPVRAVAS | failed |
| MNIYDQLQAVEDRYEELGELLSDPDVVSDTKRFMELSREEANSRETVAVYREYKQVVQNIADAQEMIKDASGDPELEEMAKEELKNSKVAKEEYEEKLRFLLLPKDPNDDKNIILEIRGAAGGDEAALFAGDLLNMYQKYAENQGWKFEVMEASANGVGGLKEVVAMVSGQSVYSKLKYESGAHRVQRVPVTESQGRVHTSTATVLVMPEVEEVEYEIDPKDLRVDIYHASGAGGQNVNKVATAVRIIHLPTNIKVEMQEERTQQKNRDKAMKIIRARVADHFAQIAQDEQDAERKSTVGTGDRSERIRTYNFPQNRVTDHRIGLTLQKLDSILSGKLDEVIDALILYDQTQKLEELNK | not failed |
| MTWLFCDRIATKIDKNNGISMITHNFNTLDLLTSPVWIVSPFEEQLIYANSAARLLMQDLTFSQLRTGPYSVSSQKELPKYLSDLQNQHDIIEILTVQRKEEETALSCRLVLRKLTEAEPVIIFEGIEAPATLGLKASRSANYQRKKQGFYARFFLTNSAPMLLIDPSRDGQIVDANLAALNFYGYNHETMCQKHTWEINMLGRRVMPIMHEISHLPGGHKPLNFVHKLADGSTRHVQTYAGPIEIYGDKLMLCIVHDITEQKRLEEQLEHAAHHDAMTGLLNRRQFYHITEPGQMQHLAIAQDYSLLLIDTDRFKHINDLYGHSKGDEVLCALARTLESCARKGDLVFRWGGEEFVLLLPRTPLDTALSLAETIRVSVAKVSISSLPRFTVSIGVAHHEGNESIDELFKRVDDALYRAKNDGRNRVLAA | failed |
| MSDPSPIPARGRIASGGLVFLTVTTVAWGLSWPVTKYLISQWPPLPLRGLTGIAGSLALFGYAALRGDSLAVPRDQRLRLVISAFFNVTLWMAVMGLALLWLPAGETAVIAYTMPVWTALLAWPLLGERLTLRRVAALALAFGGIAALMGAAGFAASMTKLPGILLALTGALGFALGTIFLKRFPIALPGATSAAWQIGLGCIPVAVIGLAFEIPHVSVLTPLGWAGLVYLVVIQFCIAYVCWFAALQRLPASVAAIGTMATPVIGVVASAVALHEPLGVGQIAALVMTLTGVALATRS | failed |
| LGLVCLTVGPEVRFRTVTLSRYRALSPAEREAKLLDLYSSNIKTLRGAADYCAAHDIRLYRLSSSLFPMLDLAGDDTGAAVLTHLAPQLLEAGHAFTDAGVRLLMHPEQFIVLNSDRPEVRESSVRAMSAHARVMDGLGLARTPWNLLLLHGGKGGRGAELAALIPDLPDPVRLRLGLENDERAYSPAELLPICEATGTPLVFDAHHHVVHDKLPDQEDPSVREWVLRARATWQPPEWQVVHLSNGIEGPQDRRHSHLIADFPSAYADVPWIEVEAKGKEEAIAALRLMAPFKKD | failed |
| MRPEHIPNIISTLRIFLVYPVVHLMLAERYTAALALFVVAGVSDAIDGFLAKHYGWQSRLGSYLDPLADKLLLVCCFVAGAWLGLLPVWMAAAVLLRDAVIVTGAIAYYLLLHPFDGQPILASKLNTLLQLAFIVAILFNRGVSELPPFLLDGLLAATLATTIASGAIYVYVWGRNYRLETAQGRR | failed |
| VQFSLLHSKFHLCSVATRALLLSTYIKFINLFPETKATIQGVLRAGSQLRNADVELQQRAVEYLTLSSVASTDVLATVLEEMPPFPERESSILAKLKRKKGPGAGSALDDGRRDPSSNDINGGME | failed |
| MSRPEGHTLRRRLAGVVFVLVPALLIWLAVAVYDKKFTDSDPVVVETGSAGNQMHPGAEVKLRGVVVGEVRAIDATGDGARLTLAMKPGALDDVPSDVRAQMLPTTLFGERFVALVPPANPSPEPLAAGAVVPQDRSANAIELQQVLDDVLPMLTAVQPQKLSATLSAVSQALEGRGERLGDTLTLLDEHLAEFNPNLPALNRDLKELVKVSHVYADAAPDVITALTDFTTTSGTLAEQEADLAATLGATTRTAEDVTAFLHKNKDNIIRLGDTSRPTLELLAEYSPAFPCTLRTLAEFVPAMDKALGKGTDRPGIHVDVTSVASRGAYRPGRDTPVYDSGGGPRCPSVPYLGALPRPTARTAAPAAEQDLGPANSPQENDLVNELLAPAAGKSPGDLPDWSSLLVGPVYRGTEVTLGLEHHHHHH | failed |
| MFVGVVVIVAYGNLGQRLAYTVRSDEVVATAGFVLVGFVAGVAGQVLGTRIQAAVGEGAAVVDLPLVLFLAASGAFVAALLRSVLFERDDPLVMLTVGLLLWLFFELDPSVTARRVVIALAVTVLLGYLSYALDTASLPGMLTGVLLSFLTIVLGGFGWFAMLITFFGLGGLSTKYRYDEKLDRGIAEENEGARGSGNVLANSIVALFAVVAAAASPSHIAVDPLLFFYAFAGAVAAAMTDTFSSEFGGLYDNPRLITTLRPVEPGTDGGVTWQGVAAGAAGAGIIAGIAALTQDISTVGSGVILLCGLVGMTVDSLLGATVEGSVVGNQGVNMLATLAAALTGAGVVLTAGLL | failed |
| MTHVEDDKEFKEKPLVQVLSDDDSEVKEAKDGGGEEVTGGDGEGEANEEDLGTEYLVRPVGEVEDEDDASDFDPEENGLDEEEGDEEIEEDDVDEDISLSAGKSEPLSKRKRVAKDHSEQGDVTGDNIRPSKR | failed |
| MLIVIGYAVVILAVVGSFIGLGGHLGALYQPFELTLIAGAAVGAFMAGNSRKSLGLVAKAIPEAFRSSPYSKDVYMELMALLYVLLNKARREGLMAIESHIEDPLSSPIFNEYPRIMKDAKLMEFITDYLRIMISGNMSSFEIETLMDEEIETYRHEREVPTHALQQVADALPAFGIVAAVLGVIKALAAVDQPPAILGDLISKAMVGTFLGVLLAYGFVAPMAARIERRTSESVKVLECIKVTLLASMNGYPPQLAVEFGRKVLFSAVRPSFGELEEHVRQAKSAATGRA | failed |
| RDEVAGILRLGLSQSFGTMHIIPAIDKLRNQYPDLQVEVRLFDHQADMLKDGLDLWVTNFEDLPEGYVAQRLADSNFVLAASPDYLIDKKVPHHPLDLVEHNCLTYQ | failed |
| MSFDISELLTLYDVVTFSFPERYEDLMREIIEKATRLFGVRRLAIVLREGERYKCIERWGFRRDEEVLERIKNGGENSFIYLMRNGEQGLLYIEPPGRISEREKRLYTIFARRIENIIARKQIEEKIKNSEQEKKVILDSIVELLVFQNPDNRILWANRAAAEYAGARSEELAGRFCYEALHHRDEPCEECPVIKALDTGVPQEGIIASLEGRQFFVRGYPVKKENGLIEGIVEVSVDVTERMQAEEAFRTIFNSVHDAIFIHTLDGKIIDVNQTMLRMYVINSKEEAIKLSIIDDYSIPGSTAEQLPLLWQKVISGENLLFEWKARRPVDGSVFDVEVFLKKISLSKKDVILAAVRDITERKREEELLRNLFTHSPIGMYIVSEGKFQLINPQFEILTGYRQDKLIGMESLNLVVPEDRKMVRSNAIKMLKGEAVEPYEFRIVTGQGDIRWMEETVASIWHDGKRVTLGNIIDITQKKKFEQKLAYISLHDQLTALYNRAYFEEELKRLSTSRKYPITIIVADVNGLKLVNDTMGHDKGDELLTACARVLKKAFRSSDVVARVGGDEFVALLPRTDGKTGKSILKRLRLFIDKYNQEHPELPLSVSFGIATADTPEQSLKEIYKKADDLMYQEKLNLGSSARSKIVNALLTALSERDYITEGHARRMQKLCQDLGEKVGLSAQQLANLSLLAQVHDLGKVGIPDRILFKRGPLTEKEWEVMRQHPEKGYRIAMSSPDLAGIADLILKHHEKWDGTGYPLGLKEEEIPIECRILSIVDAFDAMTSGRPYCRTKTIEDALKEIRRCAGTQFDPRLAEAFIEMITSEKFTAGEKEVAT | failed |
| MSRTVMCRKYHEELPGLDRPPYPGAKGEDIYNNVSRKAWDEWQKHQTMLINERRLNMMNAEDRKFLQQEMDKFLSGEDYAKADGYVPPSA | not failed |
| GPPSRRSENRVVVSGLPPSGSWQDLKDHMREAGDVCYADVYRDGTGVVEFVRKEDMTYAVRKLDNTKFRSHEGETAYIRVKVDGPRSPSYGRSRSSGPSSG | not failed |
| MKIAVVDGQGGGIGKAVVEKLRKELPEDTQIIALGTNALATTLMLKAGANEGASGENAIVFNAPKVDIIVGPIGIISANSMMGELTPLMAAAIAESPARKILIPLNRCNIEIAGVKNEPLPYYIEHAVEMVKKYVEGHIALEHHHHHH | not failed |
| MQDQTEAVRFLSDPATHGGAPVERVETHGAFVFLAGSQAFKIKRAVRYDYMDLSTLALRHRMLARELELNRPAAPAIYRDLVAVTREPEGLALGGPGEPVEWVLRMWRFPAEDELSAVAERGALDDRLAARLGRSLAAYHRAAPVRSSDGAALVEAILDELGRVFAGMEDGLGAERIARFGTQARDMLARTKPLLRARSEAGRVRRGHGDLHLRNLVLIEGEPVPFDALEFDETLGTCDILYDLAFLLMDLDHRGLTRAAGIALAAWLFEMRGDEDGGLAALPLFLAVRAAIRGMVLVQTDAARGAPGHSDAEARGLLDEALRALSPPPPRLLAIGGVSGSGKTVLAAALAPRLGLPPGAIHLRSDLERKSRAGVPTDRRLGGAAYGEDARHAVYGQMLARAGAILAAGWPVILDATFLDPADRAAARALAAERGVPLEGLWLEAPPDLLVARVSTRRSDASDADEAVVRAQLARQPRAGDWRTLDTGRPPEEVAHSACRALGLD | failed |
| MADPKELQDKFWKALKSDRTVMLGLDGVEDGHARPMTAQIEGDSGGPIWFFTSKDNALIAMLGQGRRVIGAFSSKGHDLFASISGSLREDTDPAVVDRLWNPYVAAWYEGGKDDPKLALLRLDADHAQIWLNGSSLLAGIKVLLGV | not failed |
| MARGPPRALASTRSPSTHMTAISNPDSEDLHIIIAGAGRVGHRTARVLRDQGHEAYLIDKDPDIVEDARQALGATVIEGDATDPKVLAQADPERADVLAALTETGATNFAICAVVKHLTGDIRTVARIERPDQLDEEGTFFDRVVYPERAGAKSAVNQILTGDTRVFEDVGGDLDVAEVQVAPEAPAAGKQLDAAALPDQSHVVFDVTNDEVPQPSTELVPGHRYLIAAAPGVAREARRRLVG | failed |
| RIGIVVAAHGNSTASSMVQVVSQLLNVDNLKAVDMPLDMPPKEALRKIVEAVGEVNEENGVLLLVDMGSLSTFSEEIVRQTGIDVRTVDMVTTPIVLEAARKTALIDTQLETLHESLKNFHGYADIRQSETKQ | not failed |
| STITYYRTDLFKQAGLSMPERPTWTQLGEFAAKLHQPDKGVYGMCLRGKAGWGENIALLSTMANAFGARWFDEHWKPELNSPEWANAANFYVNTLKNYGPPGVSSNGFNETLALFNSGKCALWVDASVAGSFTTDKEQSKVVDSVGFAPAPVEVTDKGSSWLYAWSLAIPATSRHKDAAKAFITWATSKAYIQLVAEKDGITNVPPGTRTSTYSEA | failed |
